In PMC4764120, “Crystal Structure of Alcohol Oxidase from Pichia pastoris” (PLoS ONE, 2016):

Molecular target: the molecule itself
Assay: crystal structure; X-ray, 2.35 Å, space group P21, eight monomers in the asymmetric unit; crystals grown at 4°C in 100 mM HEPES pH 7.5, 200 mM CaCl2, 33.3% PEG 400; interfaces analysed with PISA

B1: alcohol oxidase AOX1 from Pichia pastoris (enzyme, UniProt P04842 1-663, looked up)
chain: MAIPEEFDILVLGGGSSGSCIAGRLANLDHSLKVGLIEAGENNLNNPWVYLPGIYPRNMKLDSKTASFYTSNPSPHLNGRRAIVPCANVLGGGSSINFMMYTRGSASDYDDFQAEGWKTKDLLPLMKKTETYQRACNNPDIHGFEGPIKVSFGNYTYPVCQDFLRASESQGIPYVDDLEDLVTAHGAEHWLKWINRDTGRRSDSAHAFVHSTMRNHDNLYLICNTKVDKIIVEDGRAAAVRTVPSKPLNPKKPSHKIYRARKQIVLSCGTISSPLVLQRSGFGDPIKLRAAGVKPLVNLPGVGRNFQDHYCFFSPYRIKPQYESFDDFVRGDAEIQKRVFDQWYANGTGPLATNGIEAGVKIRPTPEELSQMDESFQEGYREYFEDKPDKPVMHYSIIAGFFGDHTKIPPGKYMTMFHFLEYPFSRGSIHITSPDPYAAPDFDPGFMNDERDMAPMVWAYKKSRETARRMDHFAGEVTSHHPLFPYSSEARALEMDLETSNAYGGPLNLSAGLAHGSWTQPLKKPTAKNEGHVTSNQVELHPDIEYDEEDDKAIENYIREHTETTWHCLGTCSIGPREGSKIVKWGGVLDHRSNVYGVKGLKVGDLSVCPDNVGCNTYTTALLIGEKTATLVGEDLGYSGEALDMTVPQFKLGTYEKTGLARF
notes: Alcohol oxidase AOX1, Pichia pastoris, UniProt P04842, 663 residues as printed; identified by mass spectrometry as the host's own protein; the final crystallographic model holds residues 2 to 663 of each monomer; No tag: the protein comes from the expression host itself; also called methanol oxidase AOX1
- stoichiometry N: 8
